One data set has as its target T1, PfSir2A (UniProt Q8IE47).
T1 sequence: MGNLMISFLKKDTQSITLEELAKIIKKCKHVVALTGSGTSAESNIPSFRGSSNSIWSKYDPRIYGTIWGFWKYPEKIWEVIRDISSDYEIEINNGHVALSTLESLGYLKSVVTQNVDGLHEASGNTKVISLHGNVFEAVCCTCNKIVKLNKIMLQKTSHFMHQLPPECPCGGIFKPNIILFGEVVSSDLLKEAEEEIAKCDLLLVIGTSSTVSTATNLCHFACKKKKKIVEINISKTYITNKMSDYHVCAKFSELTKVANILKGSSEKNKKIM
Description: EMSA. On the technique in general: A gel shift assay detects complexes by their altered migration in electrophoresis.

The target in data set [1] is recombinant human 601-positioned nucleosome with histone H3 acetylated at lysine 9 (H3K9Ac dNuc) (human) (UniProt P68431). Description: native gel or EMSA.

The source of these data is article doi:10.1101/2024.09.25.614941.

Read-outs that look alike come from different tables or passages of the source.

“601 nucleosome assembly sequence DNA, 147 bp”: the Kd with PfSir2A is 4 µM. “H3K9Ac dNuc (human 601-positioned nucleosome)” came in with a Kd with PfSir2A (histone H3 K9 acetylated, no DNA modification stated) of 1.4 µM.

B1: Plasmodium falciparum silent information regulator 2A (PfSir2A) (enzyme)
chain: MGNLMISFLKKDTQSITLEELAKIIKKCKHVVALTGSGTSAESNIPSFRGSSNSIWSKYDPRIYGTIWGFWKYPEKIWEVIRDISSDYEIEINNGHVALSTLESLGYLKSVVTQNVDGLHEASGNTKVISLHGNVFEAVCCTCNKIVKLNKIMLQKTSHFMHQLPPECPCGGIFKPNIILFGEVVSSDLLKEAEEEIAKCDLLLVIGTSSTVSTATNLCHFACKKKKKIVEINISKTYITNKMSDYHVCAKFSELTKVANILKGSSEKNKKIM
In the case of B1, the Kd in data set [1] was found to be 1.4 µM.

The term Kd denotes the free concentration of one partner at which half of the binding sites on the other are occupied at equilibrium, for simple one-to-one binding.
